Measurements reported in US20260007697A1 (FUNDACI N PARA LA INVESTIGACI N M DICA APLICADA, published 2026).

Columns and labels:
[1] = target: recombinant mouse EDA protein (extra-domain A of fibronectin), His-tagged (mouse) (UniProt P11276); assay: flow cytometry, CD8+ control PSMA CAR-T cells incubated with soluble mouse His-EDA (50 µg/ml per legend paragraph 32), anti-His-APC; light grey histogram, lower number of the panel mouseEDA, CD8 row [cont.) C]
[2] = target: recombinant human EDA protein (extra-domain A of fibronectin), His-tagged (human) (UniProt P02751); assay: flow cytometry, CD8+ control PSMA CAR-T cells incubated with soluble human His-EDA (50 µg/ml per legend paragraph 32), anti-His-APC; light grey histogram, lower number of the panel humanEDA, CD8 row [cont.) C]
recombinant human EDA protein (extra-domain A of fibronectin), His-tagged (human), sequence (P02751 1722-1811 limits assumed): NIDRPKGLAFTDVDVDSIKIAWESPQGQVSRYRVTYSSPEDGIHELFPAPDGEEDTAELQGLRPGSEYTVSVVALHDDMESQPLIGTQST

[3] = target: recombinant mouse EDA protein (extra-domain A of fibronectin), His-tagged (mouse) (UniProt P11276); assay: flow cytometry, CD4+ control PSMA CAR-T cells incubated with soluble mouse His-EDA (50 µg/ml per legend paragraph 32), anti-His-APC; light grey histogram, lower number of the panel mouseEDA, CD4 row [cont.) C]
[4] = target: recombinant human EDA protein (extra-domain A of fibronectin), His-tagged (human) (UniProt P02751); assay: flow cytometry, CD4+ control PSMA CAR-T cells incubated with soluble human His-EDA (50 µg/ml per legend paragraph 32), anti-His-APC; light grey histogram, lower number of the panel humanEDA, CD4 row [cont.) C]
[5] = target: T1, recombinant human EDA protein (extra-domain A of fibronectin), His-tagged (human, UniProt P02751 1722-1811); assay: Bio-Layer Interferometry (Octet N1), scFv F8 on AR2G biosensors, soluble EDA
T1 construct: Recombinant protein carrying a His tag; also called hEDA; EDA (h)
T1 sequence (P02751 1722-1811 limits assumed): as above
Method: (§1) The resulting plasmid was transfected into BL21(DE3) cells for the expression of the recombinant scFv which was purified by affinity chromatography using protein A Sepharose (Amersham Biosciences) according to the manufacturer's instructions. Purified antibody fragments were analyzed by Coomassie and Western blot using anti-His antibodies. Recognition of EDA protein by the purified scFv F8 fragment was tested by ELISA using plates coated with recombinant EDA protein produced as described previously (Lasarte J J et al., 2007). The equilibrium dissociation constant (KD) of scFv F8 to soluble human and mouse EDAs was calculated by Bio-Layer Interferometry (BLI) using an Octet N1 (Sartorius) (FIG. 13). The scFv F8 was coated to the AR2G Biosensors (Fortébio) following manufacturer's instructions.
(§2) To evaluate the functionality of the CAR construct, EDA CAR-T cells were cultured in EDA coated plates for 48 h. Both CD4+ and CD8+ EDA CAR-T, but not PSMA CAR-T cells produced high amounts of IFN-γ (FIG. 3D) and proliferated in response to EDA (FIG. 3E). […] This discrepancy could be due to the methodological differences between assays. Indeed, in the binding experiments EDA proteins are added in solution and bind to the CAR-T cells directly. […]

[6] = target: T2, recombinant mouse EDA protein (extra-domain A of fibronectin), His-tagged (mouse, UniProt P11276 1721-1810); assay: as above
T2 construct: Recombinant protein carrying a His tag; also called murine EDA; EDA (m)
T2 sequence (P11276 1721-1810 limits assumed): as the sequence (P02751 1722-1811 limits assumed) above, with H44R, E54D, T87I counted along it
Method: as §1, §2

[7] = target: T2, recombinant mouse EDA protein …; assay: Bio-Layer Interferometry (Octet N1), scFv F8 on AR2G biosensors, soluble mEDA at 1, 2, 4 and 8 uM; table column Kd (1/s) [cont.) E]
Excerpt: as §1, with “A DNA sequence coding for the scFv recombinant antibody fragment F8 (Rybak J N et al., 2007) was cloned in pET20b plasmid (Novagen), which enables expression of fusion proteins carrying six histidine residues at the carboxyl terminus. The resulting” for “The resulting”

[8] = target: T1, recombinant human EDA protein …; assay: Bio-Layer Interferometry (Octet N1), scFv F8 on AR2G biosensors, soluble hEDA at 1, 2, 4 and 8 uM; table column Kd (1/s) [cont.) E]
Excerpt: as §1, with “A DNA sequence coding for the scFv recombinant antibody fragment F8 (Rybak J N et al., 2007) was cloned in pET20b plasmid (Novagen), which enables expression of fusion proteins carrying six histidine residues at the carboxyl terminus. The resulting” for “The resulting”

[9] = target: T2, recombinant mouse EDA protein …; assay: IFN-gamma release (ELISA) by CAR-T cells on EDA-coated plates, 48 h (functional read-out, not direct binding)
Method: Also CAR-T cells were plated for 24 h in the presence of irradiated PM299L-EDA and PM299L-Thy1.1 cells. The number of IFN-γ producing cells was measured by ELISPOT as described by Lozano et al. (Lozano T et al., 2019). CAR-T cell proliferation and IFN-γ production were measured by 3H-thymidine incorporation (0.5 μCi per well) and ELISA, respectively, as described by Casares et al. (Casares N et al., 2010). In some cases, CAR-T cell proliferation was measured by Cell trace violet (CTV) dilution assay; Lymphocytes were incubated with the dye (5 μM) for 15 minutes at 37° C. and washed with RPMI 10% FBS. 8×10⁵ labelled lymphocytes were plated and co-incubated with PM299L-EDA^high and PM299L-Thy1.1 tumor cells at a ratio of 1:1 for 72 hours at 37° C. Subsequently, the proliferating population (measured by CTV dilution) was analyzed within GFP+ lymphocytes. The proliferation index was calculated as the ratio between proliferating cells in the presence of tumor cells expressing EDA (PM299L-EDA^high) and the number of proliferating cells in the presence of tumor cells not expressing EDA (PM299L. Thy1.1) at the end of the co-culture.
EDA CAR-T cells were generated by retroviral transduction of CD4⁺ or CD8⁺ T cells with the corresponding retrovirus. Five days after infection, T cells were analyzed by flow cytometry. […] IFN-g released to the culture supernatant was measured by ELISA.

recombinant mouse EDA protein (extra-domain A of fibronectin), His-tagged (mouse), sequence (P11276 1721-1810 limits assumed): as the sequence (P02751 1722-1811 limits assumed) above, with H44R, E54D, T87I counted along it

Work on “PSMA CAR (anti-human PSMA scFv from mouse hybridoma J591 in the murine 4-1BB-CD3zeta cassette) on mouse T cells” yielded an MFI (mean fluorescence intensity) [1] of 46, an MFI (mean fluorescence intensity) [2] of 203 and an MFI (mean fluorescence intensity) [3] of 49. The MFI (mean fluorescence intensity) [4] was 269.

B1: anti-EDA F8 scFv (purified recombinant antibody fragment) (scFv)
scFv: EVQLLESGGGLVQPGGSLRLSCAASGFTFSVMKMSWVRQAPGKGLEWVSAISGSGGSTYYADSVKGRFTISRDNSKNTLYLQMNSLRAEDTAVYYCAKSTHLYLFDYWGQGTLVTVSSGGGGSGGGGSGGGGSGGGGSEIVLTQSPGTLSLSPGERATLSCRASQSVSNAFLAWYQQKPGQAPRLLIYGASSRATGIPDRFSGSGSGTDFTLTISRLEPEDFAVYYCQQMRGRPPTFGQGTKVEIKHHHHHH
notes: Expressed in E. coli BL21(DE3) from pET20b and purified on protein A Sepharose; also called scFv F8; scFv (F8)
B1 was tested, and the Kd [5] was 77.6 nM, the Kd [6] was 99.5 nM and the koff [7] was 0.000342 s⁻¹. The koff [8] was 0.000532 s⁻¹.

B2: chimeric EDA CAR with anti-EDA C27 scFv (VH/VL of antibody 27A12.70) in the murine 4-1BB-CD3zeta cassette, on mouse T cells (other)
chain: DVQLQESGPDLVKPSQSLSLTCTVTGYSITSGYSWHWIRQFPGNKLEWMGYIHYSGIANYNPSLKSRISITRDTSKNHFFLQLNSVTTEDTATYYCATEKTGFFDYWGQGTTLTVSSGGGGSGGGGSGGGGSGGGGSDVVMTQTPLSLPVSLGDQASISCRSSQSLVHSNGNTYLHWYLQKPGQSPKLLIYKVSNRFSGVPDRFSGSGSGTDFTLKISRVEAEDLGVYFCSQSAHVPPTFGGGTKLEIKR
notes: also called C27 EDA CAR-T; clone C27; not shown: limits on that entry
B2: no binding (tested: 5 µg/ml coated (FIG. 14 legend)) [9].
